Experiment: Total body weight change in antibody-dosed mice
Type: in vivo, mouse
From the text: (A) Total body weight change (mean+/−standard deviation) vs. time. […] Arrows mark the days of dosing. (B) Immunohistochemical analyses of small intestines. […] In each row as indicated, staining is shown for haemotoxylin and eosin (H & E), Alcian Blue for mucin and to mark secretory goblet cells, lysozyme to mark Paneth cells, Ki-67 for proliferation and Hes1 as a Notch downstream target. See FIGS. 19 and 20 for analyses of the large intestine at day 7 and of the small intestine at day 2, respectively. Bar=40 μm. (C) Comparison of Notch1- versus Notch2-specific inhibition on small intestinal cell differentiation. Small intestines from the study described in (A) were prepared for Alcian Blue and Ki-67 one day after the final dosing with α-gD, α-NRR1 or α-NRR2, as indicated. Bar=50 μm.
(B) Immunohistochemical analyses of small intestines from mice treated as in (A), using Alcian Blue for mucin to mark secretory goblet cells.

B1: anti-NRR2: affinity matured form of Antibody D, phage library-derived human anti-Notch2 NRR monoclonal antibody (antibody, V domains shown)
VH: EVQLVESGGGLVQPGGSLRLSCAASGYTFSSYGMSWVRQAPGKGLEWVSYIYPYSGATYYADSVKGRFTISADTSKNTAYLQMNSLRAEDTAVYYCARHSGYYRISSAMDVWGQGTLVTVSA
VL: DIQMTQSPSSLSASVGDRVTITCRASQNIKRFLAWYQQKPGKAPKLLIYGASTRESGVPSRFSGSGSGTDFTLTISSLQPEDFATYYCQQYYRSPHTFGQGTKVEIKR
total body weight change (first experiment (FIG. 15A)): weight gains | effect on weight (second experiment, 5 mg/kg (FIG. 24A)): little or no effect
